Reference: patent US20120093811A1 (published 2012)
Numbering of substitutions follows the chain as printed. One block for each binder: values may come before it.

Columns and labels:
[1] = target: T1, Source 1 VEGF-D, mature dimeric recombinant human VEGF-D (CSIRO) (human, UniProt O43915 89-205); assay: cell-based or functional assay
T1 sequence: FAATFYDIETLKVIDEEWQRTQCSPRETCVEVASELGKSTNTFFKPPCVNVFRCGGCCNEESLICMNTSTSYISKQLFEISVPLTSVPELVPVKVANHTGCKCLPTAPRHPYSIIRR

[2] = target: T2, Source 2 VEGF-D, purified recombinant human VEGF-D monomer (R&D Systems, Catalog Number 622-VD/CF) (human, UniProt O43915 93-201); assay: cell-based or functional assay
T2 sequence: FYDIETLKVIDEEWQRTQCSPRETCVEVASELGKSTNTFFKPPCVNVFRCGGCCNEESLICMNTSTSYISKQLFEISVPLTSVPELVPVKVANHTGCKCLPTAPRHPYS

[3] = target: T1, Source 1 VEGF-D, mature dimeric …; assay: SPR Protocol A, KD against that of Ig-1A
[4] = target: T1, Source 1 VEGF-D, mature dimeric …; assay: SPR Protocol B, KD against that of Ig-1A
Description: (§1) Protocol B: In the second assay format, Protocol B, the orientation of the IgGs and the VEGF-D antigen was reversed relative to Protocol A. The Source 1 VEGF-D dimer was immobilized directly on the chip surface by amine coupling and the murine anti-VEGF-D monoclonal antibody, Ig-1A or IgG variants flowed over this surface as analytes at concentrations of 4 nM, 1.33 nM, and 0.44 nM. This protocol allowed avidity effects to be controlled by reducing the density of dimeric VEGF-D immobilized on the chip and in effect reduce the bivalent binding properties of the system being analyzed.
(§2) All four flow cells on a CM5 chip were activated for 7 min at 25° C. using a mixture of NHS.EDC. Flow cell one was used as an unmodified (activated and blocked) reference against flow cells 2-4. Source 1 VEGF-D dimer was diluted to 1-3 μg/ml into 10 mM sodium acetate, pH 4, and injected over three surfaces for different lengths of time to achieve low ligand densities of 10, 15 and 20 RU to minimize avidity effects of the IgG. All surfaces were blocked for 7 min with ethanolamine (1M, pH 8.2) and pre-conditioned using five 10 s injections of 100 mM H₃PO₄; 1M NaCl. Immobilization steps were carried out at a flow rate of 30 μl/min using HBS-N running buffer.
(§3) All IgG binding experiments were performed at 25° C. using HBS-EP+ running buffer. Analytes (murine reference anti-VEGF-D monoclonal antibody and humanized variants) were injected for 200 s at a flow rate of 70 μl/min and dissociation monitored for 250 s. The antigen surfaces were regenerated with a 10 s pulse of 100 mM H₃PO₄; 1M NaCl. Analyte concentrations used for murine and humanized variants were 4 nM, 1.33 nM, and 0.44 nM. Data was processed using the reference surface and double referencing from blank injections. Binding constants for the IgG/antigen interactions were determined from the three antigen surfaces globally fitted to a 1:1 interaction model. Refractive index parameter was constant (RI=0).

[5] = target: T1, Source 1 VEGF-D, mature dimeric …; assay: SPR Protocol A, KD against that of the murine antibody
[6] = target: T1, Source 1 VEGF-D, mature dimeric …; assay: SPR Protocol B, KD against that of the murine antibody
Description: as §1
All four flow cells on a CM5 chip were activated for 7 min at 25° C. using a mixture of NHS.EDC. Flow cell one was used as an unmodified (activated and blocked) reference against flow cells 2-4. […]
All IgG binding experiments were performed at 25° C. using HBS-EP+ running buffer. Analytes (murine reference anti-VEGF-D monoclonal antibody and humanized variants) were injected for 200 s at a flow rate of 70 μl/min and dissociation monitored for 250 s. […] Binding constants for the IgG/antigen interactions were determined from the three antigen surfaces globally fitted to a 1:1 interaction model. […]

[7] = target: T1, Source 1 VEGF-D, mature dimeric …; assay: SPR Protocol B: VEGF-D dimer amine-coupled, IgG as analyte
Description: as §1, §2, §3

[8] = target: T1, Source 1 VEGF-D, mature dimeric …; assay: SPR Protocol A: IgG captured by anti-human Fc, VEGF-D dimer as analyte
[9] = target: T1, Source 1 VEGF-D, mature dimeric …; assay: SPR, labelled Protocol B in this table
[10] = target: T2, Source 2 VEGF-D, purified recombinant …; assay: SPR, IgG captured by anti-human IgG (Fc), Source 2 VEGF-D as analyte
[11] = target: T2, Source 2 VEGF-D, purified recombinant …; assay: SPR, IgG captured by anti-human IgG (Fc), Source 2 VEGF-D monomer as analyte
[12] = target: T1, Source 1 VEGF-D, mature dimeric …; assay: SPR, labelled Protocol A in this table; Protocol B by paragraph 399 and Table 7A, though printed as Protocol A
[13] = target: T1, Source 1 VEGF-D, mature dimeric …; assay: SPR; row labelled Protocol A (IgG captured by anti-human Fc, VEGF-D dimer as analyte); Protocol A line of Table 6
Description: Protocol A: The first assay format, Protocol A, used an assay system where IgGs were captured on a biosensor chip surface using an anti-human IgG (Fc) antibody and the Source 1 VEGF-D dimer run over the chip as the analyte in solution. This ensured that all IgG molecules were presented to the antigen in an active orientation.
The SPR protocol was slightly modified to compensate for the dimeric nature of the VEGF-D. Ig-1A or IgG variants were analyzed using an anti-human capture kit as described for Anti-human IgG (Fc) capture above, except that 1000 RU of the IgG or IgG variant was captured on the anti-human chip surface. […] The kinetics generated using this approach are accurate within the experimental parameters set. This standard assay protocol is best suited to studying 1:1 interactions and thus, may not be ideal for analyzing binding between the IgG variants and the VEGF-D dimer. In light of this, Protocol B was also used.

rank in the VEGFR-3-Ba/F3 bioassay [1]: 7 rank
rank in the VEGFR-3-Ba/F3 bioassay [2]: 5 rank
Fold-improvement with respect to Ig-1A [3]: 5.5 fold
Fold-improvement with respect to Ig-1A [4]: 4.4 fold
fold improvement over the original murine anti-VEGF-D monoclonal antibody [5]: 23.6 fold
fold improvement over the original murine anti-VEGF-D monoclonal antibody [6]: 11.5 fold
Kd [7]: 0.4 nM
koff [7]: 0.0019 s⁻¹
kon [7]: 4.8e+06 M⁻¹ s⁻¹
Kd [8]: 0.127 nM
koff [8]: 5.8e-05 s⁻¹
kon [8]: 460000 M⁻¹ s⁻¹
B1: humanized IgG antibody derived from clone HU75 (antibody, V domains shown)
VH: QVQLVQSGAEVKQPGASVKVSCKASGYTFTGYNMYWVRQAPGQGLEWMGYIDPYNGDTTYNQKFKGRVTMTTDTSTSTAYMKLRSLRSDDTAVYYCARTSYYGGMDYWGRGTLVTVAS
VL: DIVMTQTPLSGPVTLGQPASISCRSSQSLVHSNGNTYLHWLQQRPGQPPRLLIYKVSNRFSGVPDRFSGSGAGTDFTLKISRVEAEDVGVYYCSQSTHVPRTFGRGTKLEIKR
notes: IgG

Kd [9]: 0.7 nM
Kd [7]: 1.8 nM
koff [7]: 0.0013 s⁻¹
kon [7]: 720000 M⁻¹ s⁻¹
Kd [10]: 16.1 nM
koff [10]: 0.00901 s⁻¹
kon [10]: 494000 M⁻¹ s⁻¹
Kd [8]: 0.696 nM
koff [8]: 0.00049 s⁻¹
kon [8]: 710000 M⁻¹ s⁻¹
Kd [11]: 9.2 nM
koff [11]: 0.00678 s⁻¹
kon [11]: 730000 M⁻¹ s⁻¹
Kd [12]: 0.7 nM
koff [13]: 0.00059 s⁻¹
kon [13]: 680000 M⁻¹ s⁻¹
B2: Ig-1A, humanized IgG reformatted from scFv 1A (antibody, V domains shown)
VH: B1 VH with K82E
VL: B1 VL with G11S, R105Q
notes: IgG made in mammalian cells; also called humanized Ig-1A
